Where two headings read alike, the source gives them in different places. Square brackets hold non-standard residues; d marks the D form. Peptide text beside a SMILES is read from it. * marks the point of attachment. X3 = O=C(CCCCCNCc1nc2c(sc3cc(Br)cnc32)c(=O)[nH]1)*
Columns and labels:
[1] = molecular target: CSK (Homo sapiens, UniProt P41240); test: Kinase profiling (radiometric filter-binding); assay type: biochemical; conditions: 1 µM inhibitor, read-out: Residual activity, %
Summary of the method: (§1)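 Human kinase, ATP (≤ KM) and test compound (1 µM final) were combined; phosphorylation was quantified by radiometric filter binding. Activity left was normalised to the control reaction without compound.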

[2] = molecular target: T1, EPH-B4 (Homo sapiens, UniProt P54760); test: Kinase profiling (radiometric filter-binding); assay type: biochemical; conditions: EPH-B4, 1 µM inhibitor; read-out: Residual activity, %
T1 sequence (P54760 16-987): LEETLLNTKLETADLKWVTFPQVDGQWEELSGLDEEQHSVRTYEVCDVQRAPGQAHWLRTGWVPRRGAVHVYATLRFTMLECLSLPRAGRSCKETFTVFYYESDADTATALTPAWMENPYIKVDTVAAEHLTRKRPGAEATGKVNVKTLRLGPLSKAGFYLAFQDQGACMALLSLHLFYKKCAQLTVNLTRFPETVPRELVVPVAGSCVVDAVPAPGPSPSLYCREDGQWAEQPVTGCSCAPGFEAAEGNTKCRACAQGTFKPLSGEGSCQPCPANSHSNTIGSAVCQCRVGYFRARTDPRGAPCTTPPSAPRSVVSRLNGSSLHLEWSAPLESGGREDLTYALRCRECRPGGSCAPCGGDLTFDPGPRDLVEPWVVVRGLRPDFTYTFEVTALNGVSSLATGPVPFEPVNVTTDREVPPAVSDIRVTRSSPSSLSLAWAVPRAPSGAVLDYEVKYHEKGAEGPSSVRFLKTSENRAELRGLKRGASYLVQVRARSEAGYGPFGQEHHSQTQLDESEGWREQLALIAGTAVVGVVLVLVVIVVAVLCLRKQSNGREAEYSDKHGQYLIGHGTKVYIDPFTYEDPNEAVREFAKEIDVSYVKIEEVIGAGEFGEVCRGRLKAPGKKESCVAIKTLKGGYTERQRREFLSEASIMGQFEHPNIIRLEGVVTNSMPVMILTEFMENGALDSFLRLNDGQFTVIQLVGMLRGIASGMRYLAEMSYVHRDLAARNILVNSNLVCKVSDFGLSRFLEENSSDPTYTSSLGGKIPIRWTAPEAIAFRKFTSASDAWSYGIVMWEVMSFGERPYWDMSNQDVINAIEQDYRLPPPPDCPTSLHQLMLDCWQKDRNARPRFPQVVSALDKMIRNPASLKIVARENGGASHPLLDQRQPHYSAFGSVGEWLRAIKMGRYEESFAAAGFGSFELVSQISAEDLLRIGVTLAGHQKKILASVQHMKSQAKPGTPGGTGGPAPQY
Summary of the method: as §1

[3] = molecular target: T2, PIM1 (Homo sapiens, UniProt P11309); test: Kinase profiling (radiometric filter-binding); assay type: biochemical; conditions: PIM1, 1 µM inhibitor; for remaining activity at 1 µM: read-out: Residual activity, %
T2 sequence (P11309 whole entry): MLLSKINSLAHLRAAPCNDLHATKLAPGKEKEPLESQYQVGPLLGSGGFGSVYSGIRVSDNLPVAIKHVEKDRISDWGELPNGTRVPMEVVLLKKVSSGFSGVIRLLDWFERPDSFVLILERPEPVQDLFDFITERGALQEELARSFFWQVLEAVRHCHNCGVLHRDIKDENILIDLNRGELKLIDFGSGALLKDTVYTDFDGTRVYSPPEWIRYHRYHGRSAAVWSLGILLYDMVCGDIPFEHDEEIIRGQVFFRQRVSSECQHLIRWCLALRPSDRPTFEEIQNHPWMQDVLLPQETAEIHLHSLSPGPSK
Summary of the method: as §1

[4] = molecular target: MNK1 (Homo sapiens, UniProt Q9BUB5); test: Kinase profiling (radiometric filter-binding); assay type: biochemical; conditions: MNK1, 1 µM inhibitor; read-out: Residual activity, %
MNK1, sequence (Q9BUB5 whole entry): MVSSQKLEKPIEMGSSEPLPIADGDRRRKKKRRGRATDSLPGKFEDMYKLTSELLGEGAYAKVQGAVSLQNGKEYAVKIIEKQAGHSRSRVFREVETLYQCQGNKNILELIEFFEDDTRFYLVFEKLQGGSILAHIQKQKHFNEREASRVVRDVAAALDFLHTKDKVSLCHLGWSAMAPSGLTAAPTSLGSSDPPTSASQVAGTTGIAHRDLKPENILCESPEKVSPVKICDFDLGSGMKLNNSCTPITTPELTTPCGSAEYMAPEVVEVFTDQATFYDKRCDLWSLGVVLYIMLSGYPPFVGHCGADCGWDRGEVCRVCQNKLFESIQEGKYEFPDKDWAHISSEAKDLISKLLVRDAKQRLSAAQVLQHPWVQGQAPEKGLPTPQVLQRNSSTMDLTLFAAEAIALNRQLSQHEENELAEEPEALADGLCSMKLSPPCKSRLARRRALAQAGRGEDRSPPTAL
Summary of the method: as §1

[5] = molecular target: T3, PKAcα (Homo sapiens, UniProt P17612); test: Binding/displacement assay with FA or TGLI readout
T3 construct: purchased Biaffin GmbH & Co KG (Kassel, Germany)
Description: The affinities of the compounds toward the PIM family PKs were determined in a binding/displacement assay with measurement of fluorescence anisotropy (FA) and time-gated luminescence intensity (TGLI) (Table 2). For the initial assessment of the selectivity of compounds, PKAcα was used as the reference basophilic kinase.
Optical FA measurement modules for 5-TAMRA-labeled compounds (ex. 540(20) nm, em. 590(20) nm and 590(20) nm), for Cy5-labeled compounds (ex. 590(50) nm, em. 675(50) nm and 675(50) nm), and optical TGLI measurement modules for ARC-1451 (ex. 330(60) nm, em. 590(50) nm), for ARC-1188 (ex. 330(60) nm, em. 675(50) nm) were used for assays with PHERAstar microplate reader (BMG Labtech; Ortenberg, Germany). TGLI measurements were performed with a delay time of 50 μs and integration of the signal for 150 μs. In each measurement, emission from 200 flashes of excitation radiation was collected. The measurement solutions (20 µL volumes) were prepared in black 384-well low-binding surface microtiter plates (Corning #4514; Kennebunk, ME, USA) and incubated for 20 min at 30 °C before the measurements. The assay buffer contained HEPES hemisodium salt (pH 7.4, 50 mM), NaCl (150 mM), dithiothreitol (5 mM), bovine serum albumin (0.5 mg/mL), and Tween-20 (0.005%). GraphPad Prism v. 5.04 (GraphPad Software, Inc.) was used for data analysis with FA [32] or TGLI [33] readouts. Representative titration curves can be found in Supplementary Figure S7.

[6] = molecular target: PIM2 (Homo sapiens, UniProt Q9P1W9); test: Binding/displacement assay with FA or TGLI readout; set-up: made in house; conditions: mean ± SEM, N = 2
PIM2, sequence (Q9P1W9 whole entry): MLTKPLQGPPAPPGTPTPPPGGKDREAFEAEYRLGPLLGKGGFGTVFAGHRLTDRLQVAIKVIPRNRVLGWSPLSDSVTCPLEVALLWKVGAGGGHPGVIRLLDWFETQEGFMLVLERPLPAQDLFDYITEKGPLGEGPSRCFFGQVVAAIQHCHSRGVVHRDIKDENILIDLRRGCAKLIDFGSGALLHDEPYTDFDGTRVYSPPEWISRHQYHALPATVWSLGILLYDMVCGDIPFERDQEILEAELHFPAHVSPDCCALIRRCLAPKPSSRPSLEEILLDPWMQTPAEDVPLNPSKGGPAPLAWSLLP
Description: (§3) The affinities of the compounds toward the PIM family PKs were determined in a binding/displacement assay with measurement of fluorescence anisotropy (FA) and time-gated luminescence intensity (TGLI) (Table 2). For the initial assessment of the selectivity of compounds, PKAcα was used as the reference basophilic kinase [10].
(§4) Optical FA measurement modules for 5-TAMRA-labeled compounds (ex. 540(20) nm, em. 590(20) nm and 590(20) nm), for Cy5-labeled compounds (ex. 590(50) nm, em. 675(50) nm and 675(50) nm), and optical TGLI measurement modules for ARC-1451 (ex. 330(60) nm, em. 590(50) nm), for ARC-1188 (ex. 330(60) nm, em. 675(50) nm) were used for assays with PHERAstar microplate reader (BMG Labtech; Ortenberg, Germany). TGLI measurements were performed with a delay time of 50 μs and integration of the signal for 150 μs. In each measurement, emission from 200 flashes of excitation radiation was collected. The measurement solutions (20 µL volumes) were prepared in black 384-well low-binding surface microtiter plates (Corning #4514; Kennebunk, ME, USA) and incubated for 20 min at 30 °C before the measurements. The assay buffer contained HEPES hemisodium salt (pH 7.4, 50 mM), NaCl (150 mM), dithiothreitol (5 mM), bovine serum albumin (0.5 mg/mL), and Tween-20 (0.005%). […] 5.04 (GraphPad Software, Inc.) was used for data analysis with FA [32] or TGLI [33] readouts.

[7] = molecular target: T2, PIM1; test: Binding/displacement assay with FA or TGLI readout; set-up: made in house; conditions: KD, nM (PIM-1), TGLI or FA readout; mean ± SEM, N = 2
Description: as §3, §4

[8] = system: panel of 140 PKs; test: Kinase selectivity profiling, panel metrics; assay type: biochemical, human; conditions: 1 µM compound; kinases other than PIM family
Description: (§2) Kinase selectivity profiling was performed using the commercial service provided by the MRC PPU International Centre for Kinase Profiling (Dundee, UK) using a radiometric filter-binding assay. Kinases used for analysis were of human origin. The ATP concentration applied for inhibition measurements was at or below the ATP KM value of the particular PK. ARC-3125 and ARC-3126 were screened against 139 PKs, whereas compounds 1, 2, and 8 were screened against 140 PKs. The final total concentration of inhibitors in the selectivity panel was 1 µM. Residual activities were expressed as the percentage of retained activity compared to the control without inhibitor.
From the residual activities, values of the Gini coefficient and hit rate were calculated for each individual compound. The Gini coefficient is a single-value metric whose value for a specific inhibitor depends on the number and origin of the PKs in the panel, but also on concentration of the tested compound [70]. Hit rate is the number of kinases inhibited by over 50%.

[9] = system: PIM family; test: Kinase profiling (radiometric filter-binding), PIM family; assay type: biochemical, human; conditions: 1 µM compound
Description: as §2

[10] = TGLI or FA readout, mean ± SEM, N = 2, read-out: KD, nM (PKAcα)

CSK, sequence (P41240 whole entry): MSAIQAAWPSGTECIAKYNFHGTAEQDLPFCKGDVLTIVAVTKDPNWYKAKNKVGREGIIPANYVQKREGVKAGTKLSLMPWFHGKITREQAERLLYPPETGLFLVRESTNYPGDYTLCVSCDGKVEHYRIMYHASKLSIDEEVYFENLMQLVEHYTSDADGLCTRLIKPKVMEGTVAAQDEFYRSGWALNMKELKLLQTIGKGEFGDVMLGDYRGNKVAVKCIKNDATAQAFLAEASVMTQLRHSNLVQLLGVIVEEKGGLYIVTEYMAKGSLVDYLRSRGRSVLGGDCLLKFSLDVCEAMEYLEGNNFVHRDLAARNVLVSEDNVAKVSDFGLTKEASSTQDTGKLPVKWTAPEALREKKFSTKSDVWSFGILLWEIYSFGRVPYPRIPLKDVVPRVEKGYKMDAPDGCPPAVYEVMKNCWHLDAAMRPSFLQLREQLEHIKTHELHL

Compound | remaining activity at 1 µM [1] | remaining activity at 1 µM [2] | remaining activity at 1 µM [3] | remaining activity at 1 µM [4] | Kd [5, 10] | Kd [6] | Kd [7] | residual activity of other basophilic kinases in the panel [8] | Kd ([5]; read-out: KD toward PKAcα) | Residual activity, % [3] | residual activity, PIM family, all isoforms [9]
N=C(N)NCCC[C@@H](NC(=O)CCCCCNC(=O)Cn1cnc2c(I)c(I)c(I)c(I)c21)C(=O)N[C@H](CCCNC(=N)N)C(=O)N[C@H](CCCNC(=N)N)C(=O)N[C@H](CCCNC(=N)N)C(=O)N[C@H](CCCNC(=N)N)C(=O)N[C@H](CCCNC(=N)N)C(=O)N[C@H](CCCCN)C(N)=O [ARC-3125, TIBI-CH2-C(=O)-Ahx-(D-Arg)6-D-Lys-NH2] | 85 ± 2% | 119 ± 7% | 0% | 67 ± 4% | – | – | – | – | – | – | –
N=C(N)NCCC[C@@H](NC(=O)CNC(=O)[C@@H](CCCNC(=N)N)NC(=O)[C@@H](CCCNC(=N)N)NC(=O)CCCCCCCNCc1nc2c(sc3cc(Br)cnc32)c(=O)[nH]1)C(=O)N[C@H](CCCCN)C(N)=O [Compound 1, BPTP-Aoc-(D-Arg)2-Gly-D-Arg-D-Lys-NH2] | 141 ± 10% | 104 ± 2% | 9% | 102 ± 3% | 2250 ± 411 nM | 64 ± 8 nM | 11.4 ± 1 nM | above 81% | – | – | –
N=C(N)NCCC[C@@H](NC(=O)CCCCCNCc1nc2c(sc3cc(Br)cnc32)c(=O)[nH]1)C(=O)N[C@H](CCCNC(=N)N)C(=O)N[C@H](CCCNC(=N)N)C(=O)N[C@H](CCCNC(=N)N)C(=O)N[C@H](CCCNC(=N)N)C(=O)N[C@H](CCCNC(=N)N)C(=O)N[C@H](CCCCN)C(N)=O [ARC-3126, BPTP-Ahx-(D-Arg)6-D-Lys-NH2] (X3-[dR][dR][dR][dR][dR][dR][dK]-NH2) | 91 ± 18% | 101 ± 10% | 0% | 89 ± 5% | > 18500 nM | 2.9 ± 0.5 nM | 1.8 ± 0.7 nM | – | > 18000 nM | zero | –
N=C(N)NCCC[C@@H](NC(=O)CNC(=O)[C@@H](CCCNC(=N)N)NC(=O)[C@@H](CCCNC(=N)N)NC(=O)Cn1cc(CNCc2nc3c(sc4ccc(Br)cc43)c(=O)[nH]2)nn1)C(=O)N[C@H](CCCCN)C(N)=O [Compound 3, BBTP-Amt-(D-Arg)2-Gly-D-Arg-D-Lys-NH2] | 116 ± 5% | 98 ± 13% | 5 ± 1% | 89 ± 8% | 1500 ± 266 nM | 9.9 ± 0.8 nM | 0.7 ± 0.2 nM | – | – | – | –
N=C(N)NCCC[C@@H](NC(=O)CNC(=O)[C@@H](CCCNC(=N)N)NC(=O)[C@@H](CCCNC(=N)N)NC(=O)CCCCCCCNCc1nc2c(sc3ccc(Br)cc32)c(=O)[nH]1)C(=O)N[C@H](CCCCN)C(N)=O [Compound 2, BBTP-Aoc-(D-Arg)2-Gly-D-Arg-D-Lys-NH2] | 112 ± 20% | 118 ± 11% | 5 ± 3% | 66 ± 7% | 853 ± 28 nM | 3.8 ± 0.2 nM | 0.4 ± 0.1 nM | – | – | – | 4–7%
CN(C)c1ccc2c(c1)Oc1cc(N(C)C)ccc1C21OC(=O)c2cc(C(=O)NCCCC[C@@H](NC(=O)[C@@H](CCCNC(=N)N)NC(=O)CNC(=O)[C@@H](CCCNC(=N)N)NC(=O)[C@@H](CCCNC(=N)N)NC(=O)CCCCc3cn(Cc4nc5c(sc6ccc(Br)cc65)c(=O)[nH]4)nn3)C(N)=O)ccc21 [Compound 8, BBTP-Tap-(D-Arg)2-Gly-D-Arg-[D-Lys(5-TAMRA)]-NH2] | – | – | – | – | > 1020 nM | 157 ± 39 nM | 20.5 ± 4 nM | – | – | – | –

Reference: PMC8307404, “Crystal Structure-Guided Design of Bisubstrate Inhibitors and Photoluminescent Probes for Protein Kinases of the PIM Family” (Molecules, 2021)
